The assay addresses Recombinant SARS-CoV-2 S trimer (SARS-CoV-2) (UniProt P0DTC2). Nature of the assay: MST.

We go through 2 substances from PMC8582233.

Broadly, the Kd is the equilibrium constant for the complex coming apart. In the case of “Recombinant DC-SIGN/CD209 (from UniProt Q9NNX6 1-404) (receptor)”, the Kd came out at 28.8 nM.
“Recombinant L-SIGN/CD299 (from UniProt Q9H2X3 1-399) (receptor)”: the Kd came to 43.7 nM.
